Source: the supplement of paper PMC11246515
± gives the standard deviation of the averaged measurements.

Test: total protein half-life in vivo (active degradation + dilution); higher = more stable protein
[1] = E. coli NCM3722 delta-clpP delta-lon delta-hslV, growth: N-lim chemostat, doubling time 6 h
[2] = E. coli NCM3722 delta-clpP, growth: N-lim chemostat, doubling time 6 h
[3] = E. coli NCM3722 delta-hslV, growth: N-lim chemostat, doubling time 6 h
[4] = E. coli NCM3722 delta-lon, growth: N-lim chemostat, doubling time 6 h
[5] = E. coli NCM3722 delta-smpB, growth: N-lim chemostat, doubling time 6 h
[6] = wild type E. coli NCM3722, growth: C-lim chemostat, doubling time 3 h
[7] = wild type E. coli NCM3722, growth: C-lim chemostat, doubling time 6 h
[8] = wild type E. coli NCM3722, growth: C-lim chemostat, doubling time 12 h
[9] = wild type E. coli NCM3722, growth: N-lim chemostat, doubling time 6 h
[10] = wild type E. coli NCM3722, growth: N-lim chemostat, doubling time 12 h
[11] = wild type E. coli NCM3722, growth: P-lim chemostat, doubling time 6 h
[12] = wild type E. coli NCM3722, growth: P-lim chemostat, doubling time 12 h

Row | Sequence | total protein half-life in vivo [1] | total protein half-life in vivo [2] | total protein half-life in vivo [3] | total protein half-life in vivo [4] | total protein half-life in vivo [5] | total protein half-life in vivo [6] | total protein half-life in vivo [7] | total protein half-life in vivo [8] | total protein half-life in vivo [9] | total protein half-life in vivo [10] | total protein half-life in vivo [11] | total protein half-life in vivo [12]
1 | MSKRRVVVTGLGMLSPVGNTVESTWKALLAGQSGISLIDHFDTSAYATKFAGLVKDFNCEDIISRKEQRKMDAFIQYGIVAGVQAMQDSGLEITEENATRIGAAIGSGIGGLGLIEENHTSLMNGGPRKISPFFVPSTIVNMVAGHLTIMYGLRGPSISIATACTSGVHNIGHAARIIAYGDADVMVAGGAEKASTPLGVGGFGAARALSTRNDNPQAASRPWDKERDGFVLGDGAGMLVLEEYEHAKKRGAKIYAELVGFGMSSDAYHMTSPPENGAGAALAMANALRDAGIEASQIGYVNAHGTSTPAGDKAEAQAVKTIFGEAASRVLVSSTKSMTGHLLGAAGAVESIYSILALRDQAVPPTINLDNPDEGCDLDFVPHEARQVSGMEYTLCNSFGFGGTNGSLIFKKI [P0AAI5] | 6.45 ± 1.9 h | 4.94 ± 0.21 h | 4.87 ± 0.28 h | 5.15 ± 0.41 h | 4.89 ± 0.14 h | 3.121 ± 0.02 h | 6.09 ± 0.35 h | 12.1 ± 0.42 h | 4.89 ± 0.34 h | 8.33 ± 0.17 h | 6.13 ± 0.29 h | 12.6 ± 0.18 h
2 | MKIITCFKLVPEEQDIVVTPEYTLNFDNADAKISQFDLNAIEAASQLATDDDEIAALTVGGSLLQNSKVRKDVLSRGPHSLYLVQDAQLEHALPLDTAKALAAAIEKIGFDLLIFGEGSGDLYAQQVGLLVGEILQLPVINAVSAIQRQGNTLVIERTLEDDVEVIELSVPAVLCVTSDINVPRIPSMKAILGAGKKPVNQWQASDIDWSQSAPLAELVGIRVPPQTERKHIIIDNDSPEAIAELAEHLKKALN | – | – | – | 4.32 h | – | 0.95 h | – | – | – | – | – | –
3 | MSDIALTVSILALVAVVGLFIGNVKFRGIGLGIGGVLFGGIIVGHFVSQAGMTLSSDMLHVIQEFGLILFVYTIGIQVGPGFFASLRVSGLRLNLFAVLIVIIGGLVTAILHKLFDIPLPVVLGIFSGAVTNTPALGAGQQILRDLGTPMEMVDQMGMSYAMAYPFGICGILFTMWMLRVIFRVNVETEAQQHESSRTNGGALIKTINIRVENPNLHDLAIKDVPILNGDKIICSRLKREETLKVPSPDTIIQLGDLLHLVGQPADLHNAQLVIGQEVDTSLSTKGTDLRVERVVVTNENVLGKRIRDLHFKERYDVVISRLNRAGVELVASGDISLQFGDILNLVGRPSAIDAVANVLGNAQQKLQQVQMLPVFIGIGLGVLLGSIPVFVPGFPAALKLGLAGGPLIMALILGRIGSIGKLYWFMPPSANLALRELGIVLFLSVVGLKSGGDFVNTLVNGEGLSWIGYGALITAVPLITVGILARMLAKMNYLTMCGMLAGSMTDPPALAFANNLHPTSGAAALSYATVYPLVMFLRIITPQLLAVLFWSIG | – | 5.7 ± 0.54 h | 6.35 h | 5.52 ± 0.89 h | 6.03 ± 0.39 h | 3.27 ± 0.38 h | 5.33 ± 1.1 h | 11.4 ± 1.6 h | 5.98 ± 0.39 h | 10.4 ± 0.3 h | 5.7 ± 0.059 h | 9.94 ± 1.5 h
4 | MQTVIFGRSGCPYCVRAKDLAEKLSNERDDFQYQYVDIRAEGITKEDLQQKAGKPVETVPQIFVDQQHIGGYTDFAAWVKENLDA | 5.87 h | 3.94 h | 3.72 h | 4.75 ± 0.46 h | 3.33 h | 2.14 h | 4.99 h | 6.22 h | 3.39 h | 5.49 h | 4.16 h | 7.26 ± 0.75 h
5 | MLKRLLKRPSLNLLAWLLLAAFYISICLNIAFFKQVLQALPLDSLHNVLVFLSMPVVAFSVINIVLTLSSFLWLNRPLACLFILVGAAAQYFIMTYGIVIDRSMIANIIDTTPAESYALMTPQMLLTLGFSGVLAALIACWIKIKPATSRLRSVLFRGANILVSVLLILLVAALFYKDYASLFRNNKELVKSLSPSNSIVASWSWYSHQRLANLPLVRIGEDAHRNPLMQNEKRKNLTILIVGETSRAENFSLNGYPRETNPRLAKDNVVYFPNTASCGTATAVSVPCMFSDMPREHYKEELAQHQEGVLDIIQRAGINVLWNDNDGGCKGACDRVPHQNVTALNLPDQCINGECYDEVLFHGLEEYINNLQGDGVIVLHTIGSHGPTYYNRYPPQFRKFTPTCDTNEIQTCTKEQLVNTYDNTLVYVDYIVDKAINLLKEHQDKFTTSLVYLSDHGESLGENGIYLHGLPYAIAPDSQKQVPMLLWLSEDYQKRYQVDQNCLQKQAQTQHYSQDNLFSTLLGLTGVETKYYQAADDILQTCRRVSE | 7.04 ± 1.1 h | – | 6.05 ± 0.36 h | 6.41 ± 0.43 h | 6.19 ± 0.59 h | 3.22 ± 0.046 h | 6.12 ± 0.22 h | 10.7 ± 1.6 h | 6.42 ± 0.21 h | 12.3 ± 0.34 h | 6.03 ± 0.31 h | 13 ± 0.68 h
6 | MKKAKILSGVLLLCFSSPLISQAATLDVRGGYRSGSHAYETRLKVSEGWQNGWWASMESNTWNTIHDNKKENAALNDVQVEVNYAIKLDDQWTVRPGMLTHFSSNGTRYGPYVKLSWDATKDLNFGIRYRYDWKAYRQQDLSGDMSRDNVHRWDGYVTYHINSDFTFAWQTTLYSKQNDYRYANHKKWATENAFVLQYHMTPDITPYIEYDYLDRQGVYNGRDNLSENSYRIGVSFKL | 4.55 h | – | – | – | – | 3.093 ± 0.0091 h | 6.86 ± 1.1 h | – | – | – | – | –
7 | MKLTLKNLSMAIMMSTIVMGSSAMAADSNEKIVIAHRGASGYLPEHTLPAKAMAYAQGADYLEQDLVMTKDDNLVVLHDHYLDRVTDVADRFPDRARKDGRYYAIDFTLDEIKSLKFTEGFDIENGKKVQTYPGRFPMGKSDFRVHTFEEEIEFVQGLNHSTGKNIGIYPEIKAPWFHHQEGKDIAAKTLEVLKKYGYTGKDDKVYLQCFDADELKRIKNELEPKMGMELNLVQLIAYTDWNETQQKQPDGSWVNYNYDWMFKPGAMKQVAEYADGIGPDYHMLIEETSQPGNIKLTGMVQDAQQNKLVVHPYTVRSDKLPEYTPDVNQLYDALYNKAGVNGLFTDFPDKAVKFLNKE | 5.71 ± 0.74 h | 6.03 ± 0.55 h | 5.36 ± 0.34 h | 7.08 ± 0.86 h | 4.739 ± 0.036 h | 3.12 ± 0.32 h | 6.48 ± 0.5 h | 11.4 ± 0.14 h | 5.53 ± 0.091 h | 10.9 ± 1.6 h | 5.23 ± 0.11 h | 11.7 ± 0.17 h
8 | MWKRLLIVSAVSAAMSSMALAAPLTVGFSQVGSESGWRAAETNVAKSEAEKRGITLKIADGQQKQENQIKAVRSFVAQGVDAIFIAPVVATGWEPVLKEAKDAEIPVFLLDRSIDVKDKSLYMTTVTADNILEGKLIGDWLVKEVNGKPCNVVELQGTVGASVAIDRKKGFAEAIKNAPNIKIIRSQSGDFTRSKGKEVMESFIKAENNGKNICMVYAHNDDMVIGAIQAIKEAGLKPGKDILTGSIDGVPDIYKAMMDGEANASVELTPNMAGPAFDALEKYKKDGTMPEKLTLTKSTLYLPDTAKEELEKKKNMGY | 5.47 ± 0.2 h | 5.64 ± 0.063 h | 6.128 ± 0.015 h | 5.93 ± 0.48 h | 5.06 ± 0.13 h | 3.09 ± 0.11 h | 6.11 ± 0.068 h | 12 ± 1.7 h | 5.68 ± 1.1 h | 11.9 ± 1.6 h | 5.4 ± 0.41 h | 13.35 ± 0.018 h
